The values that follow come from publication PMC7354485 (2020).

Experiment [1] deals with pUL50 (Human cytomegalovirus) (UniProt P16791). Briefly: competition with pUL50-pUL53 interaction. The conditions noted are these: cited from earlier work.
The target of experiment [2] is pUL53 hook peptide (Human cytomegalovirus) (UniProt P16794). To be noted: cited from earlier work.
Another experiment addresses T1, BFRF1 (Epstein-Barr virus, UniProt P03185).
T1 chain: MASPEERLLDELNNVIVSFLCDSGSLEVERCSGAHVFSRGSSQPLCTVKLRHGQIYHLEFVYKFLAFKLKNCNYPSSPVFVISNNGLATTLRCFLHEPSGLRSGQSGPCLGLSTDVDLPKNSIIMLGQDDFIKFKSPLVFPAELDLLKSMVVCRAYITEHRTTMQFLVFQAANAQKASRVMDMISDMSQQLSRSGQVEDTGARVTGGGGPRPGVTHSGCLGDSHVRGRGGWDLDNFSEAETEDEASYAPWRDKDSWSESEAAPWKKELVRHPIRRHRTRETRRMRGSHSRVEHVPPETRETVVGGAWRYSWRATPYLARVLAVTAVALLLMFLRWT
Briefly: fluorescence polarization. (In general: Polarisation of emitted light reports the rotation of a fluorescent probe.)

The target in experiment [3] is T2, pUL50 (Human cytomegalovirus, UniProt P16791).
T2 chain: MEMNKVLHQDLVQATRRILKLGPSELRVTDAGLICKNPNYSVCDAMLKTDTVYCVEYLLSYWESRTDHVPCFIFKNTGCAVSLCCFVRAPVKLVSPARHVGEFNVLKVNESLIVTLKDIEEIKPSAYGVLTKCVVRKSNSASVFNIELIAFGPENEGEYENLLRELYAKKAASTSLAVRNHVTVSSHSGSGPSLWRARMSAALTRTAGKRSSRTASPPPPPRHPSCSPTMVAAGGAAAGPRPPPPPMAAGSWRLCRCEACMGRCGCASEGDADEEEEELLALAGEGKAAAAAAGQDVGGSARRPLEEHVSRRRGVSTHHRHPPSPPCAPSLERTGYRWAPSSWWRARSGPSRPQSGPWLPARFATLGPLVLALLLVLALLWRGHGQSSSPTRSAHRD
Briefly: competition with pUL50-pUL53 interaction.

The target in experiment [4] is T2, pUL50. Briefly: fluorescence polarization.

A word on the IC50: it is the midpoint of a concentration-inhibition curve. By Kd is commonly meant the equilibrium constant for the complex coming apart.

Sequence of pUL53 hook peptide (Human cytomegalovirus) (P16794 whole entry): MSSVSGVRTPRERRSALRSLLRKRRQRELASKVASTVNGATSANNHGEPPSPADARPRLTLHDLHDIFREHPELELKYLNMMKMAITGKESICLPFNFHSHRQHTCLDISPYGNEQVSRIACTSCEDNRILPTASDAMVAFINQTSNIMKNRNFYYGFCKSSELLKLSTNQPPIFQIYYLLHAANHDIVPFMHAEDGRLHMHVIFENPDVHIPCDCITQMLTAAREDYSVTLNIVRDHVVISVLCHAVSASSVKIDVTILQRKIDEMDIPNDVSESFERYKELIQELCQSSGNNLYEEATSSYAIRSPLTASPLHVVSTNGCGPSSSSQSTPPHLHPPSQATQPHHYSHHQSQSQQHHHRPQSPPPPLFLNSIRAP

Take pUL53 hook peptide: in experiment [1], the IC50 was 110 nM.

As to pUL50 (from UniProt P16791), in experiment [2], the Kd is 120 nM.

In the experiment with BFRF1, DRSHFSLRDFFRGISANFELGKDFLREMNTPIH [BFLF2 hook peptide 78-110] yielded a Kd of 117 nM.

Take LTLHDLHDIFREHPELELKYLNMMKMAIT [pUL53 hook peptide]: the IC50 with pUL50 [3] turned out to be 50 nM.

In turn, LTLHDLHDIFREHPELELKYLNMMKMAIT [pUL53 hook peptide 59-87] registered a Kd with pUL50 [4] of 120 nM.
